Paper PMC7338052

Target: endogenous CHK2 (human (endogenous in LNCaP)) (UniProt O96017)
Test: co-IP; LNCaP cells expressing wtAR, S81A or S308A for 48 hr; untreated or 6 Gy IR; endogenous CHK2 immunoprecipitated one hour after IR from 1 mg lysate; blotted for AR

Sequence of UniProt O96017 (O96017 whole entry): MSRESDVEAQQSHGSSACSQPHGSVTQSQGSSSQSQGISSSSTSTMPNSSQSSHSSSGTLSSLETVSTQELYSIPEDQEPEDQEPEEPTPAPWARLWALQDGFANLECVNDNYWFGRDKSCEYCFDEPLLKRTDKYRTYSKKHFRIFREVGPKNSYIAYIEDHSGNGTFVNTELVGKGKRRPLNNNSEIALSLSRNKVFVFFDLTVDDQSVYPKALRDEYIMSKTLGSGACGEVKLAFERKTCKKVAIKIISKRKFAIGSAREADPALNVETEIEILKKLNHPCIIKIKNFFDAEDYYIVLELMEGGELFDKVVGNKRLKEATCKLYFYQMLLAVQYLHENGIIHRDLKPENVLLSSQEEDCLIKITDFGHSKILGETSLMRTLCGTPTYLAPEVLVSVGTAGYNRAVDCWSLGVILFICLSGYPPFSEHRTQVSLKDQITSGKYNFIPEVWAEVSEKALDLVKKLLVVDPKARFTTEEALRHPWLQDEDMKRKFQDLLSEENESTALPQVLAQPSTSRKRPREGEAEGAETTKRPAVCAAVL

Work on “wtAR expressed in LNCaP cells (from UniProt P10275 1-920) (receptor)” yielded a fold change of AR co-immunoprecipitated with CHK2 after IR against untreated cells of 4 fold.
